From paper PMC8142856 (Cell, 2021)

B1: SARS-CoV-2 nsp14 (enzyme)
chain: AENVTGLFKDCSKVITGLHPTQAPTHLSVDTKFKTEGLCVDIPGIPKDMTYRRLISMMGFKMNYQVNGYPNMFITREEAIRHVRAWIGFDVEGCHATREAVGTNLPLQLGFSTGVNLVAVPTGYVDTPNNTDFSRVSAKPPPGDQFKHLIPLMYKGLPWNVVRIKIVQMLSDTLKNLSDRVVFVLWAHGFELTSMKYFVKIGPERTCCLCDRRATCFSTASDTYACWHHSIGFDYVYNPFMIDVQQWGFTGNLQSNHDLYCQVHGNAHVASCDAIMTRCLAVHECFVKRVDWTIEYPIIGDELKINAACRKVQHMVVKAALLADKFPVLHDIGNPKAIKCVPQADVEWKFYDAQPCSDKAYKIEELFYSYATHSDKFTDGVCLFWNCNVDRYPANSIVCRFDTRVLSNLNLPGCDGGSLYVNKHAFHTPAFDKSAFVNLKQLPFFYYSDSPCESHGKQVVSDIDYVPLKSATCITRCNLGGAVCRHHANEYRLYLDAYNMMISAGFSLWVYKQFDTYNLWNTFTRLQ
B2: nsp9-nsp10 fusion protein (other)
chain: NNELSPVALRQMSCAAGTTQTACTDDNALAYYNTTKGGRFVLALLSDLQDLKWARFPKSDGTGTIYTELEPPCRFVTDTPKGPKVKYLYFIKGLNNLNRGMVLGSLAATVRLQAGNATEVPANSTVLSFCAFAVDAAKAYKDYLASGGQPITNCVKMLCTHTGTGQAITVTPEANMDQESFGGASCCLYCRCHIDHPNPKGFCDLKGKYVQIPTTCANDPVGFTLKNTVCTVCGMWKGYGCSCDQLREPMLQ
B3: template-primer RNA (dsRNA)
RNA 1: CAUGCCAUGGCCUCUAAAAUGUCAGCUGCUCCCUAGCAUGCUACUACCGCGUAGCAUG
RNA 2: GCGGUAGUAGCAUGCUAGGGAGCAG

Assays:
SARS-CoV-2 nsp12 = SARS-CoV-2 nsp12 (SARS-CoV-2, UniProt P0DTD1); assay: cryo-EM structure
SARS-CoV-2 nsp13 = SARS-CoV-2 nsp13 (SARS-CoV-2, UniProt P0DTD1 5325-5925); assay: cryo-EM structure
SARS-CoV-2 nsp14 = target: B1; assay: SEC
nsp12 (RdRp with …) = target: nsp12 (RdRp with NiRAN);nsp7;nsp8;nsp9;nsp13 helicase;nsp10;nsp14 (ExoN / N7-MTase) (SARS-CoV-2;SARS-CoV-2;SARS-CoV-2;SARS-Co …, UniProt P0DTD1;P0DTD1;P0DTD1;P0DTD1;P0DTD1;P0DTD1;P0DTD1 …, ||||||); assay: cryo-EM structure

Row | Binder | binding result (SARS-CoV-2 nsp12) | binding result (SARS-CoV-2 nsp13) | binding result (SARS-CoV-2 nsp14) | binding result (nsp12 (RdRp with …))
1 | B1 | binds | binds | – | –
2 | B2 | binds | – | binds | –
3 | B3 | – | – | – | binds
